According to patent US20240190962A1 (IMMUNOWAKE, published 2024):

T1: mouse PD-1 (mouse, UniProt Q02242 25-167, limits assumed)
T1 construct: also called mPD-1
T1 sequence (looked up): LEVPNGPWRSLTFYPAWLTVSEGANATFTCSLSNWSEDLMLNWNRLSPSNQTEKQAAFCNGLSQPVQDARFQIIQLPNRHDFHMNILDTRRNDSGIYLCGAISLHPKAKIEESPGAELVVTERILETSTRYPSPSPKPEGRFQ

T2: human IL-2 receptor (IL-2Rα, IL-2Rβ, IL-2Rγ) (human, UniProt P01589 22-272; P14784 27-551; P31785 23-369)
T2 sequence (looked up) 1: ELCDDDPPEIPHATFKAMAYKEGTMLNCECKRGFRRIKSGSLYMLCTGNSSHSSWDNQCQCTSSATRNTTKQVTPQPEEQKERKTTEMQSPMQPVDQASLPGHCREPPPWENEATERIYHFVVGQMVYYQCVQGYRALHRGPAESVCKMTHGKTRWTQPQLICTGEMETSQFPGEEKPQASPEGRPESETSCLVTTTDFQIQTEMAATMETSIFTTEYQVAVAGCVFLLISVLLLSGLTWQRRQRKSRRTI
T2 sequence (looked up) 2: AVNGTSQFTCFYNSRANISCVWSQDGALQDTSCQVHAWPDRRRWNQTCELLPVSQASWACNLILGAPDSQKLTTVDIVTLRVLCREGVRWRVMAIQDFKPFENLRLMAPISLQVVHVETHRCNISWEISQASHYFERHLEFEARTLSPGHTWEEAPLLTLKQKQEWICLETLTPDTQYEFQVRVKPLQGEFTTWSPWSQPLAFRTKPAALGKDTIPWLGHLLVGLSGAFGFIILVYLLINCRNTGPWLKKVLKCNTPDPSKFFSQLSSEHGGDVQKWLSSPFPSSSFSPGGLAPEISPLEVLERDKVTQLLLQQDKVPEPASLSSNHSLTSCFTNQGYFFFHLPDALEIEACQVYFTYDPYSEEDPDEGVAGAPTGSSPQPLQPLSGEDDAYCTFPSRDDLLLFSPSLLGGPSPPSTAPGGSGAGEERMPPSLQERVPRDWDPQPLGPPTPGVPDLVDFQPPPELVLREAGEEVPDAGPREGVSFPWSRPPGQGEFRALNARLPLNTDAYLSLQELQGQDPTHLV
T2 sequence (looked up) 3: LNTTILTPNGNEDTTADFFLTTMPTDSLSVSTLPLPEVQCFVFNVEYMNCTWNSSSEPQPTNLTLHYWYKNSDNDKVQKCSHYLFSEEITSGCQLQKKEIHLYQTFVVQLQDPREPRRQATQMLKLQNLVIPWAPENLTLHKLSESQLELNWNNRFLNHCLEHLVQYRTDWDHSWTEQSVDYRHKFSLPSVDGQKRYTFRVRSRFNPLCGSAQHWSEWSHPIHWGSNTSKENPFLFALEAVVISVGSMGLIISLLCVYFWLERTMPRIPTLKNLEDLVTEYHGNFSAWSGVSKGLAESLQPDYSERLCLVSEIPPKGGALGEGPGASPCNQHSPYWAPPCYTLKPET


Columns and labels:
human PD-1 = target: T3, human PD-1 (human, UniProt Q15116 25-167, limits assumed); assay: PD-L1-Fc format, calibrated on PD-L1(wt)-Fc
T3 construct: also called hPD-1

mouse PD-1 = target: T1, mouse PD-1; assay: PD-L1-Fc format, calibrated on PD-L1(wt)-Fc
[1] = target: T4, human PD-1 on HEK-PD-1-IL-2 cells (human, UniProt Q15116 25-288); assay: FACS on HEK-PD-1-IL-2 cells
T4 construct: whole, on cells

[2] = target: T2, human IL-2 receptor (IL-2Rα, IL-2Rβ, …); assay: cell-based or functional assay

T3 sequence (Q15116 25-167 limits assumed): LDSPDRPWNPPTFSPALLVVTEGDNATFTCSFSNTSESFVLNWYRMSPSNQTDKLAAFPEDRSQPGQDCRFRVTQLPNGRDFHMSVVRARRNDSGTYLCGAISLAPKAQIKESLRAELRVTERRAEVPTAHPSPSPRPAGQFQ
T4 sequence (Q15116 25-288): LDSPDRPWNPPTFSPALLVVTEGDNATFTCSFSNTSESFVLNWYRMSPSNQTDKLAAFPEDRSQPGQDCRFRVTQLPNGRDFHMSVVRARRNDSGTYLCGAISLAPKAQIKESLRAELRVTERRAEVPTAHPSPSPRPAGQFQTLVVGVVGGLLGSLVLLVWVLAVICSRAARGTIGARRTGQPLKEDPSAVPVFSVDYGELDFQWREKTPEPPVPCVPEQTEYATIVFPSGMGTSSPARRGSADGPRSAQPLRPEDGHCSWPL

Kd (human PD-1) [nM]	Kd (mouse PD-1) [nM]	binding result [1]	Percent IL-2 signal transduction (HEK-IL-2 reporter assay) [2] [%]	Percent IL-2 signal transduction (HEK-PD-1-IL-2 reporter assay) [2] [%]	Binder
98	110				PD-L1(mut7)-Fc (Fc fusion, also called PD-L1(I54Q/E58M/R113T/M115L/S117A)) chain 1: FTVTVPKDLYVVEYGSNMTIECKFPVEKQLDLAALQVYWMMEDKNIIQFVHGEEDLKVQHSSYRQRARLLKDQLSLGNAALQITDVKLQDAGVYTCLIAYGGADYKRITVKVNAPYNKINQRILVVDPVTSEHELTCQAEGYPKAEVIWTSSDHQVLSGKTTTTNSKREEKLFNVTSTLRINTTTNEIFYCTFRRLDPEENHTAELVIPELPLAHPPNERGGGGSGGGDKTHTCPPCPAPEDEGGPSVFLFPPKPKDTLMISRTPEVTCVVVDVSHEDPEVKFNWYVDGVEVHNAKTKPREEQYNSTYRVVSVLTVLHQDWLNGKEYKCKVSNKALPAPIEKTISKAKGQPREPQVYVYPPSREEMTKNQVSLTCLVKGFYPSDIAVEWESNGQPENNYKTTPPVLDEDGSFALVSKLTVDKSRWQQGNVFSCSVMHEALHNHYTQKSLSLSPGK chain 2: FTVTVPKDLYVVEYGSNMTIECKFPVEKQLDLAALQVYWMMEDKNIIQFVHGEEDLKVQHSSYRQRARLLKDQLSLGNAALQITDVKLQDAGVYTCLIAYGGADYKRITVKVNAPYNKINQRILVVDPVTSEHELTCQAEGYPKAEVIWTSSDHQVLSGKTTTTNSKREEKLFNVTSTLRINTTTNEIFYCTFRRLDPEENHTAELVIPELPLAHPPNERGGGGSGGGDKTHTCPPCPAPEKKGGPSVFLFPPKPKDTLMISRTPEVTCVVVDVSHEDPEVKFNWYVDGVEVHNAKTKPREEQYNSTYRVVSVLTVLHQDWLNGKEYKCKVSNKALPAPIEKTISKAKGQPREPQVYVLPPSREEMTKNQVSLLCLVKGFYPSDIAVEWESNGQPENRYMTWPPVLDSDGSFFLYSKLTVDKSRWQQGNVFSCSVMHEALHNHYTQKSLSLSPGK
		binds	2.4	43.5	ligand-IL-2 mutant-PD-L2-Fc (Fc fusion, also called IL-2(R38D/K43E/E61R)/PD-L2-Fc immunocytokine; construct #11) chain 1: LFTVTVPKELYIIEHGSNVTLECNFDTGSHVNLGAITASLQKVENDTSPHRERATLLEEQLPLGKASFHIPQVQVRDEGQYQCIIIYGVAWDYKYLTLKVKASYRKINTHILKVPETDEVELTCQATGYPLAEVSWPNVSVPANTSHSRTPEGLYQVTSVLRLKPPPGRNFSCVFWNTHVRELTLASIDLQSQMEPRTHPTGGGGSAPTSSSTKKTQLQLEHLLLDLQMILNGINNYKNPKLTDMLTFEFYMPKKATELKHLQCLERELKPLEEVLNLAQSKNFHLRPRDLISNINVIVLELKGSETTFMCEYADETATIVEFLNRWITFCQSIISTLTDKTHTCPPCPAPEDEGGPSVFLFPPKPKDTLMISRTPEVTCVVVDVSHEDPEVKFNWYVDGVEVHNAKTKPREEQYNSTYRVVSVLTVLHQDWLNGKEYKCKVSNKALPAPIEKTISKAKGQPREPQVYVYPPSREEMTKNQVSLTCLVKGFYPSDIAVEWESNGQPENNYKTTPPVLDEDGSFALVSKLTVDKSRWQQGNVFSCSVMHEALHNHYTQKSLSLSPGK chain 2: LFTVTVPKELYIIEHGSNVTLECNFDTGSHVNLGAITASLQKVENDTSPHRERATLLEEQLPLGKASFHIPQVQVRDEGQYQCIIIYGVAWDYKYLTLKVKASYRKINTHILKVPETDEVELTCQATGYPLAEVSWPNVSVPANTSHSRTPEGLYQVTSVLRLKPPPGRNFSCVFWNTHVRELTLASIDLQSQMEPRTHPTGGGGSDKTHTCPPCPAPEKKGGPSVFLFPPKPKDTLMISRTPEVTCVVVDVSHEDPEVKFNWYVDGVEVHNAKTKPREEQYNSTYRVVSVLTVLHQDWLNGKEYKCKVSNKALPAPIEKTISKAKGQPREPQVYVLPPSREEMTKNQVSLLCLVKGFYPSDIAVEWESNGQPENRYMTWPPVLDSDGSFFLYSKLTVDKSRWQQGNVFSCSVMHEALHNHYTQKSLSLSPGK
